In paper PMC2912425 (Biochemistry, 2010):

T1: 6xHis Grsp1_(2-400) (mouse, UniProt Q920B0-2 2-400)
T1 sequence (looked up): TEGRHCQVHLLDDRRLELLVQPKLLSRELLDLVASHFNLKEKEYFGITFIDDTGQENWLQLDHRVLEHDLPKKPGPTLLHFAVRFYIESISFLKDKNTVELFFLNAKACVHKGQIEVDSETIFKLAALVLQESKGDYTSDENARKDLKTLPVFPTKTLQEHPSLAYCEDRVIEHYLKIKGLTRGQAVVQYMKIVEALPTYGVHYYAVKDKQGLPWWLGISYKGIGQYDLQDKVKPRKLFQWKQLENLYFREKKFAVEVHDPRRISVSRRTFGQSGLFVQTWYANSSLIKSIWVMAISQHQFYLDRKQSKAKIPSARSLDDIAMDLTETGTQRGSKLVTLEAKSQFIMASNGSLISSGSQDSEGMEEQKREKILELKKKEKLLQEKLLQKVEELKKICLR


How the values were obtained:
AUC = target: the molecule itself; assay: AUC
SEC = target: the molecule itself; assay: SEC
6xHis Grsp1_(2-400) = target: T1, 6xHis Grsp1_(2-400); assay: SEC

| percent of Grsp1_(2-400) bound (6xHis Grsp1_(2-400)) [%] | Binder | stoichiometry N (AUC) | stoichiometry N (SEC) |
| --- | --- | --- | --- |
| – | 6xHis ARNO_(2-252) (domain or fragment, human, UniProt Q99418 2-252, looked up) EDGVYEPPDLTPEERMELENIRRRKQELLVEIQRLREELSEAMSEVEGLEANEGSKTLQRNRKMAMGRKKFNMDPKKGIQFLVENELLQNTPEEIARFLYKGEGLNKTAIGDYLGEREELNLAVLHAFVDLHEFTDLNLVQALRQFLWSFRLPGEAQKIDRMMEAFAQRYCLCNPGVFQSTDTCYVLSFAVIMLNTSLHNPNVRDKPGLERFVAMNRGINEGGDLPEELLRNLYDSIRNEPFKIPEDDGND | 2 | – |
| > 90 | 6xHis Grp1_(13-248) (domain or fragment, mouse, UniProt O08967 13-248, looked up) PEDLSLEEREELLDIRRRKKELIDDIERLKYEIAEVMTEIDNLTSVEESKTTQRNKQIAMGRKKFNMDPKKGIQFLIENDLLQSSPEDVAQFLYKGEGLNKTVIGDYLGERDDFNIKVLQAFVELHEFADLNLVQALRQFLWSFRLPGEAQKIDRMMEAFASRYCLCNPGVFQSTDTCYVLSFAIIMLNTSLHNHNVRDKPTAERFITMNRGINEGGDLPEELLRNLYESIKNEPF | – | 2 |
| > 90 | 6xHis Cytohesin-1_(2-244) (domain or fragment, human, UniProt Q15438 2-244, looked up) EEDDSYVPSDLTAEERQELENIRRRKQELLADIQRLKDEIAEVANEIENLGSTEERKNMQRNKQVAMGRKKFNMDPKKGIQFLIENDLLKNTCEDIAQFLYKGEGLNKTAIGDYLGERDEFNIQVLHAFVELHEFTDLNLVQALRQFLWSFRLPGEAQKIDRMMEAFAQRYCQCNNGVFQSTDTCYVLSFAIIMLNTSLHNPNVKDKPTVERFIAMNRGINDGGDLPEELLRNLYESIKNEPF | – | – |
